Target: RNA-binding protein EWS low-complexity domain (EWS^LCD, residues 1-264) (UniProt Q01844)
Assay: condensate partitioning assay

EWS^RRM-RGG2 (central RNA-binding region of EWS: RNA-recognition motif and RGG2 domain) (domain or fragment)
percent (w/w) co-partitioned into condensates with EWS^LCD: 53 % w/w
